# Publication PMC9609998
# Legend:
# [1] = target: EGFR (on U87MG EGFR WT glioblastoma cells) (UniProt P00533); experiment: flow cytometry; settings: U87 EGFR WT cells, 1 nM-5 µM aptamer; no/low signal on EGFR-negative LN319 cells; 2'-fluoro pyrimidines (2'F-RNA); Flow cytometry: 300,000 cells detached with 0.2 M EDTA, 30 min with Cy5-aptamer; tissue: selection buffer, 2% BSA +/- 100 µg/mL yeast tRNA block, 1 h on ice …
# [2] = target: integrin α5β1 (on U87MG α5+ cells) (UniProt P08648+P05556); experiment: flow cytometry; settings: 2'-fluoro pyrimidines (2'F-RNA); Flow cytometry: 300,000 cells detached with 0.2 M EDTA, 30 min with Cy5-aptamer; tissue: selection buffer, 2% BSA +/- 100 µg/mL yeast tRNA block, 1 h on ice …; cited from earlier work
# Sequence of integrin α5β1 (on U87MG α5+ cells) (P08648 42-1049, chain 1 of 2): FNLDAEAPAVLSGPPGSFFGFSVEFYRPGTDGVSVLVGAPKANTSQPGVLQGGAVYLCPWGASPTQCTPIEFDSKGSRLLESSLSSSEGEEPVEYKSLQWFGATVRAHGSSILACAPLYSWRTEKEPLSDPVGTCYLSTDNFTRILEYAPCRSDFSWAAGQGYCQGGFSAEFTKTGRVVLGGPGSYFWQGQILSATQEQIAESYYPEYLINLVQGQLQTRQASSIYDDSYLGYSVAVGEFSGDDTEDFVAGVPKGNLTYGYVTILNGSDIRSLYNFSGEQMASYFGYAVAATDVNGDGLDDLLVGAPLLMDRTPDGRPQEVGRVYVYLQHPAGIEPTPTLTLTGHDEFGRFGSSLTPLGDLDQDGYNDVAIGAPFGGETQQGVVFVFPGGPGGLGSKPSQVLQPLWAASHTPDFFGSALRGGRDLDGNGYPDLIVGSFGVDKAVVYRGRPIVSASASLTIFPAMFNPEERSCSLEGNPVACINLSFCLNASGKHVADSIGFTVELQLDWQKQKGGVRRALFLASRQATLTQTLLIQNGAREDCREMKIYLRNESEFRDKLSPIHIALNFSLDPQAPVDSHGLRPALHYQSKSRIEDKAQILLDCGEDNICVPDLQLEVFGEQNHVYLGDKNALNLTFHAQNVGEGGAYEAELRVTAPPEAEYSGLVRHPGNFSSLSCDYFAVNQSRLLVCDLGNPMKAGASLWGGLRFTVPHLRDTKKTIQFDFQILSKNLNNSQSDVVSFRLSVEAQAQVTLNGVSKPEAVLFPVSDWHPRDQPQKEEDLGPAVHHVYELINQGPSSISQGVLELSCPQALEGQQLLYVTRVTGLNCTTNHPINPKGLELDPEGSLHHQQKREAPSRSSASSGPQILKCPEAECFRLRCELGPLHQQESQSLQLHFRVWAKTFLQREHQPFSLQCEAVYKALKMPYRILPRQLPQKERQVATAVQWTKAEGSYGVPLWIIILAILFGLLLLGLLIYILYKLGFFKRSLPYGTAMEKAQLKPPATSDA
# Sequence of integrin α5β1 (on U87MG α5+ cells) (P05556 21-798, chain 2 of 2): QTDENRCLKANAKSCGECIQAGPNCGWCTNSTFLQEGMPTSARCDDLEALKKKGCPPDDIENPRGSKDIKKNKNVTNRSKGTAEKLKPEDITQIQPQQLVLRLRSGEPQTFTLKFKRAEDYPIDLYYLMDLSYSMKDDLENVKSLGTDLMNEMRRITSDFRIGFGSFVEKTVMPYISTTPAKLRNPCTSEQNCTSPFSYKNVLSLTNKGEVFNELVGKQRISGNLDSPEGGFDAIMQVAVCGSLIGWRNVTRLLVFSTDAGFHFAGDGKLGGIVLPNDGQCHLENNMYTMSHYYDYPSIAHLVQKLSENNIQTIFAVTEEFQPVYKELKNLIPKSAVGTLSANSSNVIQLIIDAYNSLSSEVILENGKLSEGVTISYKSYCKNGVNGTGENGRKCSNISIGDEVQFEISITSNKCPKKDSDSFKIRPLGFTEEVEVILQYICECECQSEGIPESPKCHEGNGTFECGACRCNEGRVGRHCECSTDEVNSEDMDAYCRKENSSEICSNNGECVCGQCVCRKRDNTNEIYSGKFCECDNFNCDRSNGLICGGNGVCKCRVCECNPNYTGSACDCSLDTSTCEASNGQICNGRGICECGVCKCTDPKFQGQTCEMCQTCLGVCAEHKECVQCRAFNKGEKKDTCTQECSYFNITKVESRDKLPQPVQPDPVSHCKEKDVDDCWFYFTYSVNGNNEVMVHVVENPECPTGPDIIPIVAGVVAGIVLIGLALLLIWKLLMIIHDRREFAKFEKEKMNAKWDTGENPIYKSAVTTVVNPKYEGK
Sequence,Kd [1] [nM],Kd [2] [nM]
GGACGGAUUUAAUCGCCGUAGAAAAGCAUGUCAAAGCCGGAACCGUCC [E07-Cy5],209,
GGUUACCAGCCUUCACUGCGGACGGACAGAGAGUGCAACCUGCCGUGCCGCACCACGGUCGGUCACAC [H02-Cy5],,278
